The values below come from patent US11365219B2, “Cyclic peptides as protein targeting agents” (California Institute of Technology, priority 2013, dated 2022).

Numbered stars: 1 amine (or outer) side, 2 acyl side, 3 side chain; on linkers, the order of the positions; unused ones are H or OH. Bridge positions count the residues as written; N and C are the ends. Square brackets hold non-standard residues; d marks the D form. Ends that are not written are not given here. Peptide text beside a SMILES is read from it. * marks the point of attachment. Biotin = O=C1N[C@H]2[C@H](CS[C@H]2CCCCC(=O)*)N1; X1 = O=C(CCCOCCOCCOCCOCCOCCN[*:1])[*:2]; Ethylenediamine = C(CN[*:2])N[*:1]; R8 = C=CCCCCCC[C@@](C)(N)C(=O)O; S5 = C=CCCC[C@](C)(N)C(=O)O; Pra = C#CC[C@H](N)C(=O)O

Assay [1] deals with PfHRP2 protein (Plasmodium falciparum, UniProt P05227). Put plainly: biochemical. As for the experimental part: For the selectivity assay, the effect of binding of the ligand to the PfHRP2 protein with varying serum concentrations was determined.
Assay [2] has as its target Akt2 (Homo sapiens, UniProt P31751). As to the kind of experiment: single point immunoassay, cyclic versus linear peptide (FIG. 6C). Format: binding. The source says: The peptide libraries of Example 2 were screened against the C-terminal epitope of Akt2 that contains residues 450-481 as illustrated in FIG. 5. Those residues include the phosphorylation site […] which, for the screen exemplified in this example, was phosphorylated. The peptide libraries were first screened against synthetic peptide that represented a scrambled epitope of Akt2 450-481 to eliminate those library elements that bind to closely related epitopes. The remaining library elements were screened against a synthetically prepared polypeptide fragment representing the phosphorylated Akt2 C-terminus. The libraries A, B, C (from example 2) were all screened. Library C yielded hits, and the sequence of those hits (determined by Edman degradation) is shown in Table 3 (Tz4 indicates 4-carbon linker to triazole).
(§1) The structure of an isolated hit, with sequence of variable region YYTYT (SEQ ID NO:4) is illustrated in FIG. 6A. […] FIG. 6D is an affinity estimation from immunoassays in which the Cy(YYTYT (SEQ ID NO:4)-Tz4) peptide is compared against the corresponding linear peptide for capturing full-length Akt2 protein. […] Finally, FIG. 6E presents selectivity assay data showing the relative binding of the cyclic peptide to the Akt2 protein, relative to the closely related Akt1 and Akt3 proteins. The sequence of the C-terminal regions for all three proteins is given.

Assay [3] has as its target T1, full-length Akt2 protein (Homo sapiens, UniProt P31751).
T1 construct: compared against the corresponding linear peptide for capturing full-length Akt2 protein
Put plainly: affinity estimation from immunoassays capturing full-length Akt2 protein (FIG. 6D). Format: binding. As to conditions: cyclic vs linear peptide.
Excerpt: as §1

The target of assay [4] is T2, PfLDH (Plasmodium falciparum, UniProt Q27743, A73S/D96L). As to the kind of experiment: ELISA, biotinylated ligand on streptavidin plate, GST-PfLDH, antiGST-HRP detection. Format: binding. The note with it: 5 μM biotinylated ligand immobilized. As for the experimental part: (§2) Hit sequence No. 6 (HWSAN (SEQ ID NO:11)) was identified for further testing against the whole PfLDH or PvLDH proteins, results of which are presented in FIG. 10. […] A RCM cyclized version of the HWSAN (SEQ ID NO:11) peptide was synthesized. 5 μM of the biotinylated ligands were immobilized on a streptavidin plate, blocked with 5% milk and then treated with GST-PfLDH or GST-PvLDH proteins overnight. The binding was detected using antiGST-HRP antibody.
To look at the selectivity of the ligand, a single point ELISA was done with the biotinylated ligand immobilized on the streptavidin plate and treating with 10 nM PfLDH or PvLDH protein in varying concentrations of human serum.

In assay [5] the test system is PvLDH. Put plainly: ELISA, biotinylated ligand on streptavidin plate, GST-PvLDH, antiGST-HRP detection. The class given is binding. The note with it: whole protein; 5 μM biotinylated ligand immobilized; FIG. 10. As for the experimental part: as §2
Assay [6] deals with PvLDH. Put plainly: sandwich ELISA, NeutrAvidin-coated plates loaded with biotinylated ligand, pvLDH. As to conditions: varying concentrations of pLDH in TBS. Format: binding. The protocol: (§3) The structure of the resulting binary ligand hevwh-YLGHK based on the hit sequence No. 1 and representative data is presented in FIG. 11. […] Similar ELISA was performed with pLDHs and human LDH (hLDH) in the presence of 1 and 5% (v/v) human serum to confirm the selectivity and high activity of the binary ligand in complex mixtures.

Assay [7] has as its target T2, PfLDH. Put plainly: sandwich ELISA, NeutrAvidin-coated plates loaded with biotinylated ligand, pfLDH. The note with it: varying concentrations of pLDH in TBS. Format: binding. The protocol: as §3

T1 sequence (P31751 whole entry): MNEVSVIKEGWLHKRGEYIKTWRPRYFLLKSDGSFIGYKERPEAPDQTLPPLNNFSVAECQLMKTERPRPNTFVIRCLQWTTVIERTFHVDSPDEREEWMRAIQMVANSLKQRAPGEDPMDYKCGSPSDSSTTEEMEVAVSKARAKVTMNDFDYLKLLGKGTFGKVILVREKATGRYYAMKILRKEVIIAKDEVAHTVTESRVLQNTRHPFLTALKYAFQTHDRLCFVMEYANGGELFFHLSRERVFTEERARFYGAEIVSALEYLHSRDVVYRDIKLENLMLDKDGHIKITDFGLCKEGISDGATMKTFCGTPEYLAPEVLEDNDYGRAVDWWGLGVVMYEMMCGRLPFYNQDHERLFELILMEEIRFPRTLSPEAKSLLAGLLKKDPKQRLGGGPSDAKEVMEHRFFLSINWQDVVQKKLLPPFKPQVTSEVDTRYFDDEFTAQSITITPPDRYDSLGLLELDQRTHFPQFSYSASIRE
Chain of Akt2 (P31751 whole entry, the tested form may be a part): as the sequence (P31751 whole entry) above

`CC(C)C[C@@H]1NC(=O)[C@H](Cc2c[nH]c3ccccc23)NC(=O)[C@H](CCC(=O)O)NC(=O)[C@H]([C@@H](C)O)NC(=O)[C@H](CO)NC(=O)CNC(=O)[C@](C)(N)CCCCCC/C=C\CCC[C@@](C)(C(=O)NCCOCCOCCOCCOCCOCCCC(=O)NCCNC(=O)CCCC[C@@H]2SC[C@@H]3NC(=O)N[C@@H]32)NC1=O` [biotinylated peptide] (H-[R8]GSTEWL[S5][X1]-{Ethylenediamine-Biotin}; staple (Z) 1-8): a half-maximal response in assay [1] (EC50) required 20 nM.

For the molecule “Cy(YYTYT (SEQ ID NO:4)-Tz4) (triazole (positions not given here); also: Tz4: 4-carbon linker to triazole)”, the “binding relative to the linear variant” value in assay [2] is reported as “improved binding”. Further, the “affinity relative to the corresponding linear peptide” value in assay [3] is recorded as 30 fold.

Turning to “HWSAN ([Pra]HWSAN; triazole (positions not given here); also: triazole cyclisation, partner residue not given here) [HWSAN (SEQ ID NO:11)]”, the “selectivity between the PfLDH and PvLDH, triazole-cyclized versus RCM cyclic peptide” value in assay [4] (GST-PfLDH or GST-PvLDH overnight) is “higher selectivity”. Further, the “affinity for pfLDH” value in assay [4] (whole protein, FIG. 10) is listed as “high affinity”. In addition, the “affinity for pvLDH” value in assay [5] is given as “high affinity”.

“RCM cyclic peptide: RCM cyclized version of the HWSAN peptide, biotinylated ligand (staple (positions not given here); also: RCM cyclized, olefinic residues not placed, biotinylated, site not given here)”: in assay [4] (GST-PfLDH overnight), the “affinity for PfLDH, RCM cyclic versus triazole-cyclized peptide” value is listed as “higher affinity”.

With hevwh-YLGHK, in assay [6], the “affinity for pvLDH” value is “high affinity”. Besides, the “affinity for pfLDH” value in assay [7] is given as “high affinity”.
